Test results: patent US20060073152A1 (Genentech, published 2006)
No end group written: not given here.

Tests used:
[1] = molecular target: T1, human serum albumin (human, UniProt P02768 25-609); assay: phage binding
T1 construct: also called Human SA; HuSA

[2] = molecular target: T2, rat serum albumin (rat, UniProt P02770 25-608); assay: phage binding
T2 construct: also called Rat SA; RSA
T2 sequence (P02770 25-608 limits assumed): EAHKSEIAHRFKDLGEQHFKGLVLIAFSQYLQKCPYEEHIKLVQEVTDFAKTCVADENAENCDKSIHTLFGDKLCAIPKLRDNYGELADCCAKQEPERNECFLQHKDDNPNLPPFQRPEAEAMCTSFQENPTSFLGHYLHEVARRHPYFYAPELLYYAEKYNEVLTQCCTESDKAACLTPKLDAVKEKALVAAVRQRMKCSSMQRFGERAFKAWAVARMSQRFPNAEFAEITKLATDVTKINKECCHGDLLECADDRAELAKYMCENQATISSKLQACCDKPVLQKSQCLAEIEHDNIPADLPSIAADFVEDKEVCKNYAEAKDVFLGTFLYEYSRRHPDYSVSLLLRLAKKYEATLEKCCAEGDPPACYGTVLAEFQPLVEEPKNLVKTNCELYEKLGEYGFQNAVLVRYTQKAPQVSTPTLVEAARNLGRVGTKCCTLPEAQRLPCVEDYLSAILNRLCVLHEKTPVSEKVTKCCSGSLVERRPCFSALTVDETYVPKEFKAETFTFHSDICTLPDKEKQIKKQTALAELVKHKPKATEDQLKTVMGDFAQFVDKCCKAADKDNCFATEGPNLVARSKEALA

Binder | binding result [1] | binding result [2]
GTEVCYFPGICWGGG (not fully specified (bridges); cysteine pairing not given here; also: phage-displayed, on phage) [HBC-H3] | binds | –
QGGMGDFCLPQWGCLWGEDL (on phage) [RB-R17] | – | binds
QGYMVDFCLPRWGCLWGDAN (not fully specified (bridges); cysteine pairing not given here, on phage) [RB-R12] | – | binds
SREVCYYPGICWNGA (on phage) [HBC-H2] | binds | –
ERQMVDFCLPKWGCLWGDGF (on phage) [RB-R11] | – | binds
QTRSFCADWPRHESCKPLRG (on phage) [HA-H76] | binds | –
NDEICYFPGVCWKSG (on phage) [HBC-H11] | binds | –
KTCYFPGICWM (on phage) [HC-H10] | binds | –
IVEMCYYPGICWISP (on phage) [HB-H10] | binds | –
VRDMCYFPGICWKSE (on phage) [HBC-H19] | binds | –
MEPSRSVCYAEGICFDRGEQ (on phage) [HB-H8] | binds | –
TTEMCYFPGICWKTE (on phage) [HBC-H14] | binds | –
HAEICYFPGICWTER (not fully specified (bridges); cysteine pairing not given here; also: phage-displayed, on phage) [HBC-H17] | binds | –
LAEMCYFPGICWMSA (on phage) [HBC-H7] | binds | –
RAAESSVCYWPGICFDRTEQ (on phage) [HB-H2] | binds | –
QSQLEDFCLPKWGCLWGDGF (not fully specified (bridges); cysteine pairing not given here, on phage) [RB-R15] | – | binds
KTEICYFPGICWMSG (not fully specified (bridges); cysteine pairing not given here; also: phage-displayed, on phage) [HBC-H15] | binds | –
RDTVCYFPGICWMAS (not fully specified (bridges); cysteine pairing not given here; also: phage-displayed, on phage) [HBC-H18] | binds | –
GGEICYFPGICRVLP (not fully specified (bridges); cysteine pairing not given here; also: phage-displayed, on phage) [HBC-H4] | binds | –
WDDICFRDWGCLWGS (on phage) [RBC-R7] | – | binds

Binder | binding result [1] | binding result [2]
QRHMMDFCLPKWGCLWGDGY (not fully specified (bridges); cysteine pairing not given here, on phage) [RB-R4] | – | binds
VQEVCYFPGICWMQE (on phage) [HBC-H10] | binds | –
ETCYFPGICWL (on phage) [HC-H12] | binds | –
ASEICYFPGICWMVE (on phage) [HBC-H12] | binds | –
QTELCYFPGICWNES (on phage) [HBC-H13] | binds | –
LVPERIVCYFESICYERSEL (on phage) [HB-H4] | binds | –
GMCYFPGICWA (on phage) [HC-H4] | binds | –
RTAESLVCYWPGICFAQSER (not fully specified (bridges); cysteine pairing not given here; also: phage-displayed, on phage) [HB-H18] | binds | –
SGAICYVPGICWTHA (on phage) [HB-H7] | binds | –
KLCYFPGICWS (not fully specified (bridges); cysteine pairing not given here; also: phage-displayed, on phage) [HC-H2] | binds | –
DMCYFPGICWL (on phage) [HC-H13] | binds | –
DICYIPGICWM (on phage) [HC-H6] | binds | –
DSEVCYFPGICWSGT (on phage) [HBC-H1] | binds | –
ELCYFPGICWM (on phage) [HC-H20] | binds | –
EVCYFPGICWE (not fully specified (bridges); cysteine pairing not given here; also: phage-displayed, on phage) [HC-H16] | binds | –
ALCYFPGICWM (on phage) [HC-H14] | binds | –
DVCYFPGICWM (on phage) [HC-H8] | binds | –
EVCYFPGICWF (not fully specified (bridges); cysteine pairing not given here; also: phage-displayed, on phage) [HC-H11] | binds | –
DLCYFPGICWM (on phage) [HC-H3] | binds | –
EMCYFPGICWT (on phage) [HC-H9] | binds | –

Binder | binding result [1] | binding result [2]
EICYFPGICWM (on phage) [HC-H17] | binds | –
EICYFPGICWI (on phage) [HB-H12] | binds | –
EVCYFPGICWM (on phage) [HC-H19] | binds | –
ELCYFPGICWP (on phage) [HC-H15] | binds | –
ELCYFPGICWT (not fully specified (bridges); cysteine pairing not given here; also: phage-displayed, on phage) [HB-H13] | binds | –
EMCYFPGICWS (on phage) [HC-H7] | binds | –
SYAPCYFPGICWMGN (on phage) [HBC-H8] | binds | –
KMGRVDFCLPKWGCLWGDEL (not fully specified (bridges); cysteine pairing not given here, on phage) [RB-R13] | – | binds
QRPIMDFCLPKWGCLWEDGF (on phage) [RB-R7] | – | binds
EHDMCYFPGICWIAD (on phage) [HBC-H6] | binds | –
DMCYFPGICFN (on phage) [HC-H18] | binds | –
GVRTFCQDWPAHNSCKLLRG (on phage) [HA-H73] | binds | –
RMPASLPCYWETICYESSEQ (not fully specified (bridges); cysteine pairing not given here; also: phage-displayed, on phage) [HB-H16] | binds | –
REPASLVCYFEDICFVRAEA (on phage) [HB-H3] | binds | –
EVRSFCTDWPAHYSCTSLQG (on phage) [HA-H74] | binds | –
EWDVCLPHWGCLWDG (on phage) [RBC-R16] | – | binds
DICLPRWGCLW (on phage) [RC-R13] | – | binds
DICLPVWGCLW (on phage; also called RC-R2; RC-R3) [RC-R1] | – | binds
